From patent US20230021840A1, “USE OF GP73 INHIBITOR IN PREPARATION OF MEDICINE FOR TREATING DIABETES” (BEIJING SUNGEN BIOMEDICAL TECHNOLOGY CO. LTD., priority 2020, published 2023)
“Also recorded” adds a separate entry of the source.

Experiments:
endogenous GP73 = assay: Knockdown of endogenous GP73 in H22 cells (western blotting); format: cell-based; conditions: H22 mouse liver cells; 24 h after transfection
Procedure: Experimental method: A total of 9 RNAi oligos (Table 7, SEQ ID NOs. 1-9) targeting different sites of mouse GP73 were firstly synthesized, and H22 mouse liver cells were transfected and collected for the western blotting experiments 24 h after transfection.

glucagon [1] = target: glucagon (UniProt P01275); assay: SPR, Reichert 4SPR
glucagon [2] = target: glucagon (UniProt P01275); assay: OpenSPR, GP73 coupled to amine sensor chip, glucagon in mobile phase
glucagon [3] = target: glucagon (UniProt P01275); assay: microscale thermophoresis (MST), His-tagged GP73 labelled with RED-tris-NTA, GCG titrated
[4] = system: mice with type II diabetes; assay: GP73 siRNA treatment of high-fat-diet-induced mice with type II diabetes; format: in vivo, C57BL/6N mice; conditions: for HbA1c: serum
Procedure: 2. In the present invention, the detection method of glucose in mice is as follows: all blood samples were collected from the tail, and the blood glucose was tested by a full-automatic glucometer (ACCU-CHEK; Roche) through a glucose oxidase method; normal mice and diabetic mice were fasting for 6 h, and fasting blood glucose was tested; the random blood glucose level was tested at 9:00 am; and when the blood glucose level is greater than 35 mM (the upper limit of glucometer), it was recorded as 35 mM.
3. In the present invention, the detection method of the glycometabolism experiment is as follows: In the glucose, insulin and pyruvate tolerance tests, mice were fasting for 12 h and then injected with D-glucose (Sigma, Art. No.: G8270, 1.5 g/kg body weight), insulin (Sigma, Art. No.: 19278, 0.75 U/kg body weight) or sodium pyruvate (Sigma, Art. No.: P2256, 2 g/kg body weight) at […]; at 0 min, 15 min, 30 min, 45 min, 60 min, 120 min and 24 h after injection, blood was collected from the tail vein of mice, and blood glucose was tested to determine the intraperitoneal glucose tolerance (IPGTT), pyruvate tolerance (PTT) and insulin tolerance (ITT).
Experimental method: On this basis, C57BL/6N mice (male, 8-10 weeks old, 20-22 g) were selected, and after feeding high-fat diet for 20 weeks, the animals were fasting for 6 h, and the fasting blood glucose was tested. […] According to the fasting blood glucose, the mice were randomly divided into the Ctr siRNA group and the GP73 siRNA experimental group, 6 mice per group. The mice were first injected with 4 nM at the tail vein, and then intraperitoneally injected with 4 nM, once every 5 days. The mice were sacrificed 4 weeks after the first injection, and the indicators such as blood glucose and glycated hemoglobin were detected.

GCG [5] = target: T1, GCG (Homo sapiens, UniProt P01275); assay: Affinity of recombinant soluble GP73 and GCG by Reichert 4SPR; format: binding
T1 construct: purchased MCE HY-P0082

GCG [6] = target: T1, GCG; assay: Affinity of recombinant soluble GP73 and GCG by microscale thermophoresis (MST); format: binding
GCG [7] = target: T1, GCG; assay: Affinity of recombinant soluble GP73 and GCG by OpenSPR; format: binding
PKA = PKA phosphorylation and kinase activity in HepG2 cells (western blotting); format: cell-based; conditions: versus PBS control

glucagon, sequence (P01275 53-81 limits assumed): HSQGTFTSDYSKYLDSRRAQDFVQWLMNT

No. 4: GP73 siRNA 995-CCAACAGGCAUCCAUCCAATT (unmodified) (2'-OMe throughout, phosphorothioates at both ends, 3'-cholesterol, counts not given here)
Knockdown efficiency of endogenous GP73 (endogenous GP73): good knockdown efficiency

recombinant mouse soluble GP73
Kd (glucagon [1]): 1550 nM
Kd (glucagon [2]): 3.21 µM
Kd (glucagon [3]): 410 nM

Ctr siRNA: RNAi oligos with disrupted sequences used as control, AUCACACCAACACAGGUCCTT (chemistry not given here)
ALT ([4]; 4 weeks after treatment): 77 ± 22
AST ([4]; 4 weeks after treatment): 243 ± 65
CHO ([4]; 4 weeks after treatment): 5.62 ± 0.97
TG ([4]; 4 weeks after treatment): 1.27 ± 0.37
HbA1c ([4]; 4 weeks after treatment): 4.39±0.67%
HbA1c ([4]; 4 weeks after treatment, listed as Ctrl siRNA): 4.39 ± 0.67%
Fasting blood glucose ([4]; Week 0): 12.0 ± 1.7 mM
Fasting blood glucose ([4]; Week 4, injection once every 5 days): 12.2 ± 3.0 mM

recombinant rat soluble GP73
Kd (glucagon [1]): 730 nM
Kd (glucagon [2]): 3.19 µM
Kd (glucagon [3]): 580 nM

recombinant monkey soluble GP73
Kd (glucagon [1]): 350 nM
Kd (glucagon [3]): 120 nM

B1: rhsGP73: recombinant human soluble GP73, NCBI Reference Sequence NP_057632.2 (protein)
chain: AAAERGAVELKKNEFQGELEKQREQLDKIQSSHNFQLESVNKLYQDEKAVLVNNITTGERLIRVLQDQLKTLQRNYGRLQQDVLQFQKNQTNLERKFSYDLSQCINQMKEVKEQCEERIEEVTKKGNEAVASRDLSENNDQRQQLQALSEPQPRLQAAGLPHTEVPQGKGNVLGNSKSQTPAPSSEVVLDSKRQVEKEETNEIQVVNEEPQRDRLPQEPGREQVVEDRPVGGRGFGGAGELGQTPQVQAALSVSQENPEMEGPERDQLVIPDGQEEEQEAAGEGRNQQKLRGEDDYNMDENEAESETDKQAALAGNDRNIDVFNVEDQKRDTINLLDQREKRNHTL
Kd (GCG [5]): 2830 nM
Kd (GCG [6]): 2450 nM
Kd (GCG [7]): 2800 nM
PKA phosphorylation level (PKA-p) and kinase activity (RRXρS/T) (PKA): significantly up-regulated; also recorded: promotes the phosphorylation level (PKA-p) and kinase activity
